The text below walks through data of paper PMC4840175, “A Substrate Mimic Allows High-Throughput Assay of the FabA Protein and Consequently the Identification of a Novel Inhibitor of Pseudomonas aeruginosa FabA” (Journal of Molecular Biology, 2016).

Substrate in this data set: CCCCCCCC(O)CC(=O)SCCNC(C)=O
Nature of the data set: enzyme turnover, coupled PaFabA-PaFabV fluorescence assay (estimated KM) and direct UV assay. It counts as biochemical, Pseudomonas aeruginosa.

B1: PaFabA (3-hydroxyacyl-[ACP] dehydratase) (Pseudomonas aeruginosa PAO1) (protein)
chain: MTKQHAFTREDLLRCSRGELFGPGNAQLPAPNMLMIDRIVHISDVGGKYGKGELVAELDINPDLWFFACHFEGDPVMPGCLGLDAMWQLVGFYLGWQGNPGRGRALGSGEVKFFGQVLPTAKKVTYNIHIKRTINRSLVLAIADGTVSVDGREIYSAEGLRVGLFTSTDSF
As usually defined, the Km is the concentration of substrate that gives half-maximal velocity. As for B1, the Km was 400 µM.
